The RNAGym collection of RNA variant scans (doi:10.1021/acssynbio.7b00057)

B1: Pistol ribozyme (parent)
chain: GGGUCGUUGUUCCAUAAUCGCGUGGAUAUGGCACGCAAGUUUCUACCGGGCACCGUAAAUGUCCGACUGGAGCCGUUCGGGCGGCUAUAAACAGACCUCAGGCCCGAAGCGUGGCGGCACCUGCCGCCGGUGGUAAAAAAGAUCGGAAGAGCACACGUCU

Variants of: B1
Experiment: aptazyme ON/OFF ratio, guanine; higher = stronger switching; co-transcriptional cleavage with and without guanine

Point of comparison: U7C U8G U10C U11C C12G C13A, “aptazyme ON/OFF ratio” value 1.14. Against it:
- U7C U8G U10C U11G C12U C13A — higher, 1.24
- U7C U8G U10C U11G C12U C13U — higher, 1.25
- U7C U8G U11A C12A C13G — lower, 1.07
- U7C U8G U11A C12A C13A — lower, 1.09
- U7C U8G U11A C12A C13U — lower, 1.13
- U7C U10C U11C C12U C13U — higher, 1.33
- U7C U10C U11C C12U C13A — higher, 1.25
- U7C U10C U11C C12U C13G — higher, 1.24
- U7C U10C U11C C12G C13U — higher, 1.24
- U7C U10C U11C C12G C13G — higher, 1.18
- U7C U10C U11C C12G C13A — higher, 1.25
- U7C U8G U10G U11C — lower, 1.09
- U7C U8G U10G U11G — higher, 1.63
- U7C U8G U10G U11A — higher, 1.17
- U7C U8G U11G C12A C13A — lower, 1.1
- U7C U8G U11G C12A C13G — lower, 1.08
- U7C U8G U11G C12A C13U — higher, 1.18
- U7C U10A U11A C12A C13G — lower, 1.11
- U7C U10A U11A C12A C13U — higher, 1.21
- U7C U10A U11A C12A C13A — higher, 1.17
- U7C U10G C12G C13U — higher, 1.18
- U7C U10G C12G C13A — higher, 1.17
- U7C U10G C12G C13G — lower, 1.13
- U7C U8G U11A — higher, 1.88
- U7C U8G U11C — higher, 3.13
- U7C U8G U11G — higher, 1.2
- U7C U10C C12U C13U — higher, 1.36
- U7C U10C C12U C13A — higher, 1.3
- U7C U10C C12U C13G — higher, 1.28
- U7C U10C U11C C12A — higher, 1.29
- U7C U10C U11C C12U — higher, 1.31
- U7C U10C U11C C12G — higher, 1.28
- U7C U8G U10G U11G C13A — higher, 1.21
- U7C U8G U10G U11G C13G — higher, 1.28
- U7C U8G U10G U11G C13U — higher, 1.39
- U7C U8G U11A C13G — lower, 1.07
- U7C U8G U11A C13A — lower, 1.07
- U7C U8G U11A C13U — higher, 1.16
- U7C U10C U11A C12G — higher, 1.38
- U7C U10C U11A C12A — higher, 1.53
- U7C U10C U11A C12U — higher, 1.42
- U7C U8G U10G U11A C12U C13U — higher, 1.23
- U7C U8G U10G U11A C12U C13G — lower, 1.11
- U7C U8G U10G U11A C12U C13A — higher, 1.23
- U7C U10A U11G C12U — higher, 1.19
- U7C U10A U11G C12A — higher, 1.29
- U7C U10A U11G C12G — higher, 1.18
- U7C U8G U10G U11C C12A C13A — higher, 1.19
- U7C U8G U10G U11C C12A C13U — higher, 1.42
- U7C U8G U10G U11C C12A C13G — lower, 1.1
- U7C U8G U10C U11A C13G — higher, 1.16
- U7C U8G U10C U11A C13A — higher, 1.32
- U7C U8G U10C U11A C13U — higher, 3.36
- U7C U8G U10G C12G C13G — the same, 1.14
- U7C U8G U10G C12G C13U — higher, 1.29
- U7C U8G U10G C12G C13A — lower, 1.11
- U7C U8G U10G U11G C12A C13A — lower, 1.11
- U7C U8G U10G U11G C12A C13U — higher, 1.26
- U7C U8G U10G U11G C12A C13G — higher, 1.19
- U7C U10C U11G C12G — higher, 1.3
- U7C U10C U11G C12U — higher, 1.18
- U7C U10C U11G C12A — higher, 1.35
- U7C U10A U11A C12U C13U — higher, 1.27
- U7C U10A U11A C12U C13G — higher, 1.16
- U7C U10A U11A C12U C13A — higher, 1.28
- U7C U8G U11G C12G C13G — lower, 1.08
- U7C U8G U11G C12G C13A — lower, 1.07
- U7C U8G U11G C12G C13U — lower, 1.05
- U7C U8G U10G C12U — higher, 1.24
- U7C U8G U10G C12A — higher, 1.21
- U7C U8G U10G C12G — higher, 1.36
- U7C U10A U11G C12G C13U — lower, 1.12
- U7C U10A U11G C12G C13G — higher, 1.16
- U7C U10A U11G C12G C13A — higher, 1.26
- U7C U10G U11A C13G — higher, 1.18
- U7C U10G U11A C13A — lower, 1.1
- U7C U10G U11A C13U — lower, 1.08
- U7C U8G U10C C13A — higher, 1.86
- U7C U8G U10C C13G — higher, 2.71
- U7C U8G U10C C13U — higher, 1.54
- U7C U8G U10G U11C C12U C13A — higher, 1.33
- U7C U8G U10G U11C C12U C13G — higher, 1.21
- U7C U8G U10G U11C C12U C13U — higher, 1.37
- U7C U8G U10C U11A C12U C13U — higher, 1.24
- U7C U8G U10C U11A C12U C13G — lower, 1.11
- U7C U8G U10C U11A C12U C13A — higher, 1.15
- U7C U10A U11C C12A — lower, 1.12
- U7C U10A U11C C12U — lower, 1.03
- U7C U10A U11C C12G — higher, 1.25
- U7C U8G U10C U11G C13G — lower, 1.1
- U7C U8G U10C U11G C13U — higher, 2.15
- U7C U8G U10C U11G C13A — higher, 1.39
- U7C U8G U11C C12U C13U — higher, 1.35
- U7C U8G U11C C12U C13A — higher, 1.35
- U7C U8G U11C C12U C13G — higher, 1.19
- U7C U8G U10C U11G C12G — higher, 1.32
- U7C U8G U10C U11G C12A — higher, 2.9
- U7C U8G U10C U11G C12U — higher, 1.97
- U7C U8G U11C C12U — higher, 1.28
- U7C U8G U11C C12A — higher, 1.35
- U7C U8G U11C C12G — higher, 1.3
- U7C U10G U11A C12A C13U — lower, 1.09
- U7C U10G U11A C12A C13A — higher, 1.2
- U7C U10G U11A C12A C13G — higher, 1.17
- U7C U10A U11A C12G C13U — higher, 1.17
- U7C U10A U11A C12G C13A — lower, 1.11
- U7C U10A U11A C12G C13G — higher, 1.33
- U7C U8G U11G C12U C13G — lower, 1.07
- U7C U8G U11G C12U C13U — higher, 1.17
- U7C U8G U11G C12U C13A — lower, 1.11
- U7C U10C U11C C12A C13A — higher, 1.25
- U7C U10C U11C C12A C13G — higher, 1.32
- U7C U10C U11C C12A C13U — higher, 1.2
- U7C U8G U11C C12A C13U — higher, 1.34
- U7C U8G U11C C12A C13A — higher, 1.28
- U7C U8G U11C C12A C13G — higher, 1.15
- U7C U8G U10C U11C C12G C13G — lower, 1.13
- U7C U8G U10C U11C C12G C13U — higher, 1.24
- U7C U10A U11G C12U C13U — higher, 1.5
- U7C U10A U11G C12U C13A — higher, 1.35
- U7C U10A U11G C12U C13G — higher, 1.2
- U7C U8G U10C U11A C12G C13A — lower, 1.07
- U7C U8G U10C U11A C12G C13G — lower, 1.12
- U7C U8G U10C U11A C12G C13U — lower, 1.08
- U7C U8G U10C C12U C13U — higher, 2.3
- U7C U8G U10C C12U C13G — higher, 1.3
- U7C U8G U10C C12U C13A — higher, 1.61
- U7C U8G U10G U11G C12U C13A — higher, 1.25
- U7C U8G U10G U11G C12U C13U — higher, 1.4
- U7C U8G U10G U11G C12U C13G — higher, 1.26
- U7C U10C U11C C13U — lower, 1.08
- U7C U10C U11C C13A — lower, 1.07
- U7C U10C U11C C13G — the same, 1.14
- U7C U10C C12A C13U — higher, 1.34
- U7C U10C C12A C13G — higher, 1.18
- U7C U10C C12A C13A — higher, 1.37
- U7C U10C U11A C13A — the same, 1.14
- U7C U10C U11A C13U — higher, 1.38
- U7C U10C U11A C13G — higher, 1.21
- U7C U10C — higher, 1.92
- U7C U10G — higher, 1.65
- U7C U10A — lower, 1.12
- U7C U8G U11C C12G C13U — higher, 1.17
- U7C U8G U11C C12G C13A — higher, 1.15
- U7C U8G U11C C12G C13G — higher, 1.17
- U7C U8G U10G C13A — higher, 1.4
- U7C U8G U10G C13U — higher, 1.35
- U7C U8G U10G C13G — higher, 1.29
- U7C U8G U10C U11A C12A — higher, 2.52
- U7C U8G U10C U11A C12G — higher, 1.2
- U7C U8G U10C U11A C12U — higher, 3.58
- U7C U8G U10C U11G C12G C13G — lower, 1.09
- U7C U8G U10C U11G C12G C13U — lower, 1.11
- U7C U8G U10C U11G C12G C13A — lower, 1.09
- U7C U8G U10C U11C C13G — lower, 1.09
- U7C U8G U10C U11C C13A — lower, 1.03
- U7C U8G U10C U11C C13U — lower, 1.11
- U7C U8G U10G C12U C13U — higher, 1.37
- U7C U8G U10G C12U C13A — higher, 1.27
- U7C U8G U10G C12U C13G — higher, 1.23
- U7C U10G C12U C13G — lower, 1.11
- U7C U10G C12U C13A — higher, 1.25
- U7C U10G C12U C13U — higher, 1.24
- U7C U8G U10C U11A C12A C13G — the same, 1.14
- U7C U8G U10C U11A C12A C13A — higher, 1.19
- U7C U8G U10C U11A C12A C13U — higher, 1.33
